From patent publication US20230242902A1, “A HIGHLY ERROR-PRONE […] R[…] FOR TARGETED CONTINUOUS EVOLUTION IN VIVO” (The Regents of the University of California, priority 2017, published 2023)

Tested on: p1-encoded leu2 (Q180*)
Assay: Large-scale p1 fluctuation tests of p1-encoded leu2 (Q180*), per-base substitution rate
Assay type: cell-based, S. cerevisiae
Details: per-base substitution rate, p1-encoded leu2 (Q180*), large-scale fluctuation test
From the text: All three TP-DNAP1 libraries were screened through small scale p1 fluctuation tests in a metastable S. cerevisiae strain, OR-Y24. OR-Y24 contains w.t. p1 and recombinant p1 that lacks w.t. TP-DNAP1, and instead, encodes a standardized fluorescence reporter of p1 copy number (Table 1), and a disabled version of the LEU2 selection marker (leu2 (Q180*)). As described previously (Ravikumar et al., 2014), leu2 (Q180*) contains a C→T mutation at base 538 in LEU2 at a site permissive to all single point mutants that generate missense mutations. Reversion to functional LEU2 can be detected on medium lacking leucine.
Large-scale fluctuation tests of p1-encoded leu2 (Q180*) were performed to precisely determine per-base substitution rates for individually cloned or isolated TP-DNAP1 variants. Large-scale p1 fluctuation tests are performed similarly to small-scale p1 fluctuation tests, with several modifications. First, large-scale p1 fluctuation tests were typically performed with 36-48 replicates. For highly error-prone TP-DNAP1s obtained from later rounds of screening, fewer replicates (3-16) were used, which is sufficient for similar precision (Foster et al., 2006). Second, p1 copy number was determined by the flow cytometry method, described below. Third, cell titers were measured for each fluctuation test to estimate the average number of cells per culture. Cell resuspensions were diluted and plated on solid SC-UH medium, and colony counts were determined after incubation at 30° C. for 2-3 days. Alternatively, cell resuspensions were diluted and subject to an event-count measurement via flow cytometry. Fourth, inoculums of highly error-prone TP-DNAP 1 s occasionally contained pre-existing mutants, despite the 1:10,000 dilution, so mutant frequencies were estimated by plating pre-cultures on solid SC-UHLW, pH 5.8 medium. Plates were incubated for 2-3 days, in parallel with cultures grown for fluctuation tests. Pre-culture mutant titers were counted to estimate the number of replicates in the fluctuation test expected to contain pre-existing mutants (n). Revertants were counted from all replicates of the fluctuation tests, counts were sorted, and n replicates with the highest counts were omitted from calculations.
To calculate per-base substitution rates, fluctuation data were analyzed by the maximum likelihood method, implemented using newton.LD.plating in rSalvador 1.7 (Zheng, 2017). Phenotypic mutation rates were calculated by normalizing to the average number of cells per culture. Phenotypic mutation rates were divided by the measured p1 copy number and by the number of ways leu2 (Q180*) can revert to LEU2 (2.33 for the ochre codon) to yield per-base substitution rates. 95% confidence intervals were similarly scaled by these factors. All data related to large-scale p1 fluctuation tests are fully described in Table 2.

Molecule	Mutation rate (s.p.b.)
L640A, M779L (protein) MDYKDKALNDLRNVYADFDSLPLDFRQILIKDRATLLQKEDVEKKILERQEDAKKYAEYLKQSEIPERISLPNIKRHKGVSISFEETSEDMVLEPRPFIFDGLNIRCFRRETIFSLKNKILNMVKESSSFKNVSRQSVSFMYFKIFNKGKVIASTKSVNIYEDKIDERLEDLCNNFDDVLKKIIDVTYGYESLFVSETYSYVIFYAKSIYFPQPRCVNNWGNNIPNILTFDSFKLFTANKNNVSCIKQCSRFLWQKDFNTLEEMIEYKNGNICIVTPQLHINDVRDIKSFNDIRLYSESPIKTFSVIDNTITYLFYFKEHLGVIFNITKSRHDRRVTKFSPLSKFSDVKNITVCFDIESYFDPEKESNQVNIPFICCASIIYNKVIGNIVDFEGRDCVAQMIEYVVDICGELNISSVELIAHNGGGYDFHYILSSMYNPAAIKNILIRNNSFISFNFAHDGVKFSVKDSYSFLLCSLANASKAFLNEETFKKTDFPHHDLKTADDLYKVYKEWSSVNTEINHVVEKEKLLITSEHIVNFTKNDKSKTLIEWSKDYCRNDVLVLSKVWLEFKNAVEDIFNCELVDQTMTLAGLSYKLFQANMPFDVELRHPNKEDYFNMREALIGGRCISVNGIYKDVLCADVKSLYPASMAFYDQPYGSFKRVSSRPKDELGIYYVRVTPNRNNKSNFFPIRSHNKITYNNFEESTYIAWYTNVDIDIGLSEGHNIEYIPFDSYGNIGYSWSKKGKIFEKYIKDVLYKLKIKYEKQNNKVKRNVIKIILNSLWGKFAQKWVNFEYFIKSEDDIDFESEEAYKIWDTDFMLIKKIKESTYSSKPIQNGVFTLSWARYHMKSIWDAGAKEGAECIYSDTDSIFVHKEHFKKNAKFMLNGLKVPIIGSEVGQLELECEFDKLLCAGKKQYMGFYTYFQDGKPCIKEKKRFKGIPSNYIIPELYAHLLSGADKEAKIQFLKFRREWGSVKGYIENKTVKAT	2.79 × 10^−9 s.p.b.
L640G, I777K, W814N (protein) MDYKDKALNDLRNVYADFDSLPLDFRQILIKDRATLLQKEDVEKKILERQEDAKKYAEYLKQSEIPERISLPNIKRHKGVSISFEETSEDMVLEPRPFIFDGLNIRCFRRETIFSLKNKILNMVKESSSFKNVSRQSVSFMYFKIFNKGKVIASTKSVNIYEDKIDERLEDLCNNFDDVLKKIIDVTYGYESLFVSETYSYVIFYAKSIYFPQPRCVNNWGNNIPNILTFDSFKLFTANKNNVSCIKQCSRFLWQKDFNTLEEMIEYKNGNICIVTPQLHINDVRDIKSFNDIRLYSESPIKTFSVIDNTITYLFYFKEHLGVIFNITKSRHDRRVTKFSPLSKFSDVKNITVCFDIESYFDPEKESNQVNIPFICCASIIYNKVIGNIVDFEGRDCVAQMIEYVVDICGELNISSVELIAHNGGGYDFHYILSSMYNPAAIKNILIRNNSFISFNFAHDGVKFSVKDSYSFLLCSLANASKAFLNEETFKKTDFPHHDLKTADDLYKVYKEWSSVNTEINHVVEKEKLLITSEHIVNFTKNDKSKTLIEWSKDYCRNDVLVLSKVWLEFKNAVEDIFNCELVDQTMTLAGLSYKLFQANMPFDVELRHPNKEDYFNMREALIGGRCISVNGIYKDVLCGDVKSLYPASMAFYDQPYGSFKRVSSRPKDELGIYYVRVTPNRNNKSNFFPIRSHNKITYNNFEESTYIAWYTNVDIDIGLSEGHNIEYIPFDSYGNIGYSWSKKGKIFEKYIKDVLYKLKIKYEKQNNKVKRNVIKKIMNSLWGKFAQKWVNFEYFIKSEDDIDFESEEAYKINDTDFMLIKKIKESTYSSKPIQNGVFTLSWARYHMKSIWDAGAKEGAECIYSDTDSIFVHKEHFKKNAKFMLNGLKVPIIGSEVGQLELECEFDKLLCAGKKQYMGFYTYFQDGKPCIKEKKRFKGIPSNYIIPELYAHLLSGADKEAKIQFLKFRREWGSVKGYIENKTVKAT	2.63 × 10^−7 s.p.b.
L640N, I777A (protein) MDYKDKALNDLRNVYADFDSLPLDFRQILIKDRATLLQKEDVEKKILERQEDAKKYAEYLKQSEIPERISLPNIKRHKGVSISFEETSEDMVLEPRPFIFDGLNIRCFRRETIFSLKNKILNMVKESSSFKNVSRQSVSFMYFKIFNKGKVIASTKSVNIYEDKIDERLEDLCNNFDDVLKKIIDVTYGYESLFVSETYSYVIFYAKSIYFPQPRCVNNWGNNIPNILTFDSFKLFTANKNNVSCIKQCSRFLWQKDFNTLEEMIEYKNGNICIVTPQLHINDVRDIKSFNDIRLYSESPIKTFSVIDNTITYLFYFKEHLGVIFNITKSRHDRRVTKFSPLSKFSDVKNITVCFDIESYFDPEKESNQVNIPFICCASIIYNKVIGNIVDFEGRDCVAQMIEYVVDICGELNISSVELIAHNGGGYDFHYILSSMYNPAAIKNILIRNNSFISFNFAHDGVKFSVKDSYSFLLCSLANASKAFLNEETFKKTDFPHHDLKTADDLYKVYKEWSSVNTEINHVVEKEKLLITSEHIVNFTKNDKSKTLIEWSKDYCRNDVLVLSKVWLEFKNAVEDIFNCELVDQTMTLAGLSYKLFQANMPFDVELRHPNKEDYFNMREALIGGRCISVNGIYKDVLCNDVKSLYPASMAFYDQPYGSFKRVSSRPKDELGIYYVRVTPNRNNKSNFFPIRSHNKITYNNFEESTYIAWYTNVDIDIGLSEGHNIEYIPFDSYGNIGYSWSKKGKIFEKYIKDVLYKLKIKYEKQNNKVKRNVIKAIMNSLWGKFAQKWVNFEYFIKSEDDIDFESEEAYKIWDTDFMLIKKIKESTYSSKPIQNGVFTLSWARYHMKSIWDAGAKEGAECIYSDTDSIFVHKEHFKKNAKFMLNGLKVPIIGSEVGQLELECEFDKLLCAGKKQYMGFYTYFQDGKPCIKEKKRFKGIPSNYIIPELYAHLLSGADKEAKIQFLKFRREWGSVKGYIENKTVKAT	3.04 × 10^−8 s.p.b.
L640G, I775A (protein) MDYKDKALNDLRNVYADFDSLPLDFRQILIKDRATLLQKEDVEKKILERQEDAKKYAEYLKQSEIPERISLPNIKRHKGVSISFEETSEDMVLEPRPFIFDGLNIRCFRRETIFSLKNKILNMVKESSSFKNVSRQSVSFMYFKIFNKGKVIASTKSVNIYEDKIDERLEDLCNNFDDVLKKIIDVTYGYESLFVSETYSYVIFYAKSIYFPQPRCVNNWGNNIPNILTFDSFKLFTANKNNVSCIKQCSRFLWQKDFNTLEEMIEYKNGNICIVTPQLHINDVRDIKSFNDIRLYSESPIKTFSVIDNTITYLFYFKEHLGVIFNITKSRHDRRVTKFSPLSKFSDVKNITVCFDIESYFDPEKESNQVNIPFICCASIIYNKVIGNIVDFEGRDCVAQMIEYVVDICGELNISSVELIAHNGGGYDFHYILSSMYNPAAIKNILIRNNSFISFNFAHDGVKFSVKDSYSFLLCSLANASKAFLNEETFKKTDFPHHDLKTADDLYKVYKEWSSVNTEINHVVEKEKLLITSEHIVNFTKNDKSKTLIEWSKDYCRNDVLVLSKVWLEFKNAVEDIFNCELVDQTMTLAGLSYKLFQANMPFDVELRHPNKEDYFNMREALIGGRCISVNGIYKDVLCGDVKSLYPASMAFYDQPYGSFKRVSSRPKDELGIYYVRVTPNRNNKSNFFPIRSHNKITYNNFEESTYIAWYTNVDIDIGLSEGHNIEYIPFDSYGNIGYSWSKKGKIFEKYIKDVLYKLKIKYEKQNNKVKRNVAKIIMNSLWGKFAQKWVNFEYFIKSEDDIDFESEEAYKIWDTDFMLIKKIKESTYSSKPIQNGVFTLSWARYHMKSIWDAGAKEGAECIYSDTDSIFVHKEHFKKNAKFMLNGLKVPIIGSEVGQLELECEFDKLLCAGKKQYMGFYTYFQDGKPCIKEKKRFKGIPSNYIIPELYAHLLSGADKEAKIQFLKFRREWGSVKGYIENKTVKAT	1.81 × 10^−8 s.p.b.
L640G, I777A (protein) MDYKDKALNDLRNVYADFDSLPLDFRQILIKDRATLLQKEDVEKKILERQEDAKKYAEYLKQSEIPERISLPNIKRHKGVSISFEETSEDMVLEPRPFIFDGLNIRCFRRETIFSLKNKILNMVKESSSFKNVSRQSVSFMYFKIFNKGKVIASTKSVNIYEDKIDERLEDLCNNFDDVLKKIIDVTYGYESLFVSETYSYVIFYAKSIYFPQPRCVNNWGNNIPNILTFDSFKLFTANKNNVSCIKQCSRFLWQKDFNTLEEMIEYKNGNICIVTPQLHINDVRDIKSFNDIRLYSESPIKTFSVIDNTITYLFYFKEHLGVIFNITKSRHDRRVTKFSPLSKFSDVKNITVCFDIESYFDPEKESNQVNIPFICCASIIYNKVIGNIVDFEGRDCVAQMIEYVVDICGELNISSVELIAHNGGGYDFHYILSSMYNPAAIKNILIRNNSFISFNFAHDGVKFSVKDSYSFLLCSLANASKAFLNEETFKKTDFPHHDLKTADDLYKVYKEWSSVNTEINHVVEKEKLLITSEHIVNFTKNDKSKTLIEWSKDYCRNDVLVLSKVWLEFKNAVEDIFNCELVDQTMTLAGLSYKLFQANMPFDVELRHPNKEDYFNMREALIGGRCISVNGIYKDVLCGDVKSLYPASMAFYDQPYGSFKRVSSRPKDELGIYYVRVTPNRNNKSNFFPIRSHNKITYNNFEESTYIAWYTNVDIDIGLSEGHNIEYIPFDSYGNIGYSWSKKGKIFEKYIKDVLYKLKIKYEKQNNKVKRNVIKAIMNSLWGKFAQKWVNFEYFIKSEDDIDFESEEAYKIWDTDFMLIKKIKESTYSSKPIQNGVFTLSWARYHMKSIWDAGAKEGAECIYSDTDSIFVHKEHFKKNAKFMLNGLKVPIIGSEVGQLELECEFDKLLCAGKKQYMGFYTYFQDGKPCIKEKKRFKGIPSNYIIPELYAHLLSGADKEAKIQFLKFRREWGSVKGYIENKTVKAT	9.28 × 10^−8 s.p.b.
